We go through 1 substance from article doi:10.1101/2024.05.09.593331.

The data set has as its system His6-Ubl1 in complex with N;Nucleocapsid (N) protein (SARS-CoV-2;SARS-CoV-2). Kind of data set: EMSA. The following applies: 50 mM Tris-HCl pH 8, 150 mM NaCl, 5 mM CaCl2 ([…].

Take 5' UTR 1-245 ssRNA: the Kd came out at 6.2 nM.
